Measurements: the Human Domainome abundance scans (Beltran et al. 2025)
± gives the uncertainty stated by the source.

B1: Far upstream element-binding protein 3, residues 75 to 150; numbered along this chain, Q96I24 (parent)
chain: RTVITEEFKVPDKMVGFIIGRGGEQISRIQAESGCKIQIASESSGIPERPCVLTGTPESIEQAKRLLGQIVDRCRN

Variants of: B1
Test: abundance fitness (aPCA) (normalised: wild type 0, dead -1); higher = more abundant; growth selection in yeast, the domain comes from the species named
Conditions: Homo sapiens

| Variant | abundance fitness |
| --- | --- |
| S44K | -0.005 ± 0.042 |
| S44P | -0.058 ± 0.043 |
| S44Q | 0.006 ± 0.044 |
| S44F | -0.06 ± 0.062 |
| S44L | -0.017 ± 0.034 |
| S44T | -0.015 ± 0.039 |
| S44R | -0.046 ± 0.028 |
| S44V | -0.05 ± 0.031 |
| S44I | -0.07 ± 0.086 |
| S44G | -0.021 ± 0.027 |
| S44H | -0.013 ± 0.066 |
| S44N | -0.053 ± 0.054 |
| S44Y | -0.086 ± 0.067 |
| S44E | -0.009 ± 0.034 |
| G45N | -0.01 ± 0.068 |
| G45E | -0.052 ± 0.032 |
| G45M | -0.101 ± 0.037 |
| G45I | -0.158 ± 0.06 |
| G45D | -0.011 ± 0.041 |
| G45L | -0.124 ± 0.029 |
| G45S | -0.051 ± 0.032 |
| G45R | -0.055 ± 0.026 |
| G45K | -0.093 ± 0.037 |
| G45H | -0.065 ± 0.057 |

| Variant | abundance fitness |
| --- | --- |
| G45Q | -0.046 ± 0.038 |
| G45A | -0.041 ± 0.029 |
| G45P | -0.067 ± 0.037 |
| G45W | -0.15 ± 0.032 |
| G45C | -0.094 ± 0.037 |
| G45Y | -0.168 ± 0.051 |
| I46Q | -0.007 ± 0.042 |
| I46D | -0.061 ± 0.046 |
| I46F | -0.023 ± 0.053 |
| I46E | 0.063 ± 0.033 |
| I46G | 0.011 ± 0.026 |
| I46N | 0.031 ± 0.056 |
| I46V | -0.007 ± 0.029 |
| I46M | -0.053 ± 0.04 |
| I46K | -0.003 ± 0.043 |
| I46W | -0.093 ± 0.033 |
| I46S | -0.018 ± 0.035 |
| I46H | 0.02 ± 0.066 |
| I46C | 0.023 ± 0.048 |
| I46P | 0.016 ± 0.046 |
| I46L | 0.018 ± 0.031 |
| I46T | 0.032 ± 0.043 |
| I46A | 0.03 ± 0.033 |
| I46R | -0.046 ± 0.027 |

| Variant | abundance fitness |
| --- | --- |
| E42Y | -0.086 ± 0.057 |
| E42D | -0.023 ± 0.048 |
| E42W | -0.069 ± 0.035 |
| E42N | -0.043 ± 0.065 |
| E42A | -0.039 ± 0.037 |
| E42P | -0.037 ± 0.047 |
| E42F | -0.093 ± 0.063 |
| E42V | -0.041 ± 0.032 |
| E42L | -0.086 ± 0.034 |
| E42I | -0.139 ± 0.077 |
| E42K | -0.047 ± 0.052 |
| E42R | 0.005 ± 0.029 |
| E42G | -0.013 ± 0.028 |
| E42S | -0.037 ± 0.037 |
| E42Q | -0.035 ± 0.042 |
| E42H | 0.01 ± 0.084 |
| E42T | -0.04 ± 0.041 |
| I39V | -0.027 ± 0.029 |
| I39F | -0.114 ± 0.052 |
| I39T | -0.321 ± 0.039 |
| I39M | -0.067 ± 0.035 |
| I39Y | -0.327 ± 0.06 |
| I39Q | -0.399 ± 0.041 |
| I39R | -0.526 ± 0.028 |

| Variant | abundance fitness |
| --- | --- |
| I39C | -0.152 ± 0.044 |
| I39H | -0.44 ± 0.066 |
| I39E | -0.502 ± 0.037 |
| I39W | -0.159 ± 0.031 |
| I39P | -0.394 ± 0.044 |
| I39G | -0.48 ± 0.027 |
| I39K | -0.614 ± 0.046 |
| I39S | -0.485 ± 0.037 |
| I39L | -0.107 ± 0.031 |
| E48F | -0.09 ± 0.046 |
| E48Q | -0.108 ± 0.04 |
| E48S | -0.043 ± 0.033 |
| E48Y | -0.056 ± 0.057 |
| E48D | 0.001 ± 0.045 |
| E48T | -0.109 ± 0.036 |
| E48A | -0.137 ± 0.031 |
| E48M | -0.048 ± 0.038 |
| E48I | -0.162 ± 0.054 |
| E48W | -0.055 ± 0.032 |
| E48N | -0.1 ± 0.06 |
| E48P | -0.242 ± 0.042 |
| E48C | -0.158 ± 0.041 |
| E48R | -0.153 ± 0.029 |
| E48V | -0.127 ± 0.029 |

| Variant | abundance fitness |
| --- | --- |
| E48L | -0.068 ± 0.031 |
| P47M | -0.072 ± 0.038 |
| P47S | 0.024 ± 0.034 |
| P47N | -0.077 ± 0.054 |
| P47F | -0.096 ± 0.044 |
| P47K | -0.023 ± 0.039 |
| P47G | -0.058 ± 0.025 |
| P47A | -0.03 ± 0.03 |
| P47L | -0.043 ± 0.03 |
| P47R | -0.065 ± 0.025 |
| P47Y | -0.12 ± 0.058 |
| P47T | -0.063 ± 0.036 |
| P47C | -0.027 ± 0.041 |
| P47H | -0.028 ± 0.05 |
| P47W | -0.084 ± 0.032 |
| P47I | -0.021 ± 0.051 |
| P47E | -0.037 ± 0.034 |
| P47Q | -0.068 ± 0.039 |
| P47V | -0.041 ± 0.03 |
| A40Q | 0.044 ± 0.039 |
| A40Y | -0.112 ± 0.062 |
| A40N | -0.076 ± 0.057 |
| A40K | -0.024 ± 0.037 |
| A40T | -0.04 ± 0.038 |

| Variant | abundance fitness |
| --- | --- |
| A40P | -0.024 ± 0.04 |
| A40L | -0.038 ± 0.03 |
| A40D | 0.002 ± 0.043 |
| A40H | -0.032 ± 0.058 |
| A40V | -0.094 ± 0.029 |
| A40M | -0.063 ± 0.04 |
| A40I | -0.036 ± 0.07 |
| A40F | 0.013 ± 0.057 |
| A40W | -0.1 ± 0.033 |
| A40G | -0.018 ± 0.025 |
| R49C | -0.091 ± 0.049 |
| R49A | -0.173 ± 0.037 |
| R49E | -0.159 ± 0.037 |
| R49F | -0.195 ± 0.058 |
| R49D | -0.251 ± 0.056 |
| S43M | -0.079 ± 0.047 |
| S43G | -0.041 ± 0.027 |
| S43A | -0.064 ± 0.039 |
| S43D | -0.036 ± 0.056 |
| S43N | -0.125 ± 0.098 |
| S43C | 0.017 ± 0.053 |
| S43K | -0.11 ± 0.056 |
| S43V | -0.057 ± 0.032 |
| S43W | -0.155 ± 0.038 |

| Variant | abundance fitness |
| --- | --- |
| S43P | 0.018 ± 0.051 |
| S43Q | -0.055 ± 0.045 |
| S43E | -0.049 ± 0.039 |
| S43I | 0.028 ± 0.069 |
| S43F | -0.092 ± 0.1 |
| S43R | -0.079 ± 0.03 |
| S43L | -0.102 ± 0.035 |
| S41N | 0.022 ± 0.057 |
| S41C | -0.026 ± 0.044 |
| S41D | -0.06 ± 0.044 |
| S41K | 0.058 ± 0.04 |
| S41I | -0.092 ± 0.07 |
| S41R | 0.032 ± 0.027 |
| S41T | -0.02 ± 0.038 |
| S41G | -0.015 ± 0.026 |
| S41V | -0.089 ± 0.03 |
| S41Y | -0.164 ± 0.069 |
| S41W | -0.159 ± 0.033 |
| S41Q | 0.012 ± 0.041 |
| S41F | -0.176 ± 0.059 |
| S41P | -0.027 ± 0.041 |
| S41H | -0.099 ± 0.089 |
| S41A | -0.035 ± 0.031 |
